Measured values as given in publication PMC7954794, “Protein context shapes the specificity of SH3 domain-mediated interactions in vivo” (Nature Communications, 2021).

Columns and labels:
[1] = system: growth of yeast strains under 51 stress conditions; assay: Growth assays in 51 stress conditions (Fig. 1E-F, S2D, S5B); assay type: cell-based, Saccharomyces cerevisiae; design: key to Growth (Fig. S2D) / growth of ABP1 SH3-swapped strains in stress condition: log2 colony size, average of median per strain (growth score); settings: ABP1 SH3-swapped strains
Experimental: All WT, SH3-deleted, KO (except for CDC25 which is the only essential SH3-containing gene in yeast), ABP1 SH3-swapped, and SLA1 SH3-shuffled strains were grown on omnitrays in 1536 formats and robotically manipulated with a pin tool (the DHFR F[1,2] bait strains were used except for the KO strains). Each strain was randomly positioned in 6 replicates per plate and two plates per condition were performed, for 12 replicates per strain in total. A border of two rows and two columns of WT strains (BY4741) around the plate was used to remove border effects. Strains were grown on YPD media for two days at 30 °C. They were then replicated on 51 different media that are described in the Supplementary Table 3 and were incubated at 37 °C in a spImager custom platform with images acquired every two hours for four days. The colony sizes from plate pictures were also measured with the R package “Gitter” and the output was manually inspected. Positions with an abnormality in colony circularity were removed. The colony sizes after 74 h of incubation at 37 °C were log2 transformed and used for the analyses. First, the differences between the two plate replicates were corrected to remove plate effects. The median colony size was calculated for each strain per plate. Strains with a difference in their median colony size of more than two between the two plate replicates were removed. Finally, the average of the median colony size was calculated for each strain per condition (growth score).

[2] = system: PPIs identified as affected by the SH3 domain deletions; assay: Liquid DHFR-PCA low-throughput validation of PPIs affected by SH3 deletion (Fig. S1D-E); assay type: cell-based, Saccharomyces cerevisiae; settings: label = prey, liquid DHFR-PCA, prey _1 = lost, _2 = gained in screen
Experimental: Liquid DHFR-PCA low-throughput experiments were performed to validate the PPIs identified as affected by the SH3 domain deletions in the high-throughput solid DHFR-PCA screen (256 PPIs weaker or lost and 116 PPIs stronger or gained following domain deletions). Mating and the diploid selection were performed as described for the large-scale experiment, with the exception that the plates were in 384 formats. Following the second diploid selection, diploid cells were inoculated in a 96 v-shaped well plate using a robotically manipulated 96 pin tool in a synthetic complete medium with MSG at pH 6.0 with NAT and HPH. After 48 h of growth, optical density (OD) was read using a TECAN Infinite F200 Pro, and dilutions to 1 OD in sterile nanopure water were prepared. Cells were then diluted to 0.1 OD by combining 25 µl of cell suspension at OD = 1 and 225 µl of PCA selection media without agar in a 96-wells plate. Plates were incubated at 30 °C in a TECAN Infinite M Nano and OD was monitored each 15 min for 72 h.

B1: ABP1 WT (protein, UniProt P15891 2-592, looked up)
Actin-binding protein: ALEPIDYTTHSREIDAEYLKIVRGSDPDTTWLIISPNAKKEYEPESTGSSFHDFLQLFDETKVQYGLARVSPPGSDVEKIIIIGWCPDSAPLKTRASFAANFAAVANNLFKGYHVQVTARDEDDLDENELLMKISNAAGARYSIQTSSKQQGKASTPPVKKSFTPSKSPAPVSKKEPVKTPSPAPAAKISSRVNDNNDDDDWNEPELKERDFDQAPLKPNQSSYKPIGKIDLQKVIAEEKAKEDPRLVQKPTAAGSKIDPSSDIANLKNESKLKRDSEFNSFLGTTKPPSMTESSLKNDDDKVIKGFRNEKSPAQLWAERKAKQNSGNAETKAEAPKPEVPEDEPEGEPDVKDLKSKFEGLAASEKEEEEMENKFAPPPKKSEPTIISPKPFSKPQEPVKAEEAEQPKTDYKKIGNPLPGMHIEADNEEEPEENDDDWDDDEDEAAQPPLPSRNVASGAPVQKEEPEQEEIAPSLPSRNSIPAPKQEEAPEQAPEEEIEEEAEEAAPQLPSRSSAAPPPPPRRATPEKKPKENPWATAEYDYDAAEDNELTFVENDKIINIEFVDDDWWLGELEKDGSKGLFPSNYVSLGN
Growth (Fig. S2D) ([1]; Bathophenanthroline.0.1uM): 10.7779 | Growth (Fig. S2D) ([1]; Bathophenanthroline.10uM): 10.6544 | Growth (Fig. S2D) ([1]; Bathophenanthroline.1uM): 10.7233 | Growth (Fig. S2D) ([1]; CaCl2.100mM): 10.745 | Growth (Fig. S2D) ([1]; CaCl2.250mM): 10.6724 | Growth (Fig. S2D) ([1]; CaCl2.500mM): 10.224 | Growth (Fig. S2D) ([1]; Caffein.10mM): 9.987 | Growth (Fig. S2D) ([1]; Caffein.2mM): 10.9881 | Growth (Fig. S2D) ([1]; CdCl2.100uM): 9.742 | Growth (Fig. S2D) ([1]; CdCl2.10uM): 10.8471 | Growth (Fig. S2D) ([1]; CdCl2.50uM): 10.1808 | Growth (Fig. S2D) ([1]; CuSO4.1mM): 10.5746 | Growth (Fig. S2D) ([1]; CuSO4.5mM): 8.442 | Growth (Fig. S2D) ([1]; Cycloheximide.0.05.uM): 11.0561 | Growth (Fig. S2D) ([1]; Cycloheximide.0.2.uM): 10.6665 | Growth (Fig. S2D) ([1]; Cycloheximide.0.5.uM): 10.4823 | Growth (Fig. S2D) ([1]; DMSO.2.): 10.9822 | Growth (Fig. S2D) ([1]; DMSO.6.): 9.9755 | Growth (Fig. S2D) ([1]; DMSO.8.): 9.381 | Growth (Fig. S2D) ([1]; Ethanol.2.): 10.76 | Growth (Fig. S2D) ([1]; Ethanol.6.): 10.427 | Growth (Fig. S2D) ([1]; Ethanol.8.): 10.4864 | Growth (Fig. S2D) ([1]; Galactose.2.): 10.7856 | Growth (Fig. S2D) ([1]; Glycerol.2.): 10.3292 | Growth (Fig. S2D) ([1]; Hydroxyurea.25mM): 10.7632 | Growth (Fig. S2D) ([1]; Hygromycin.190uM): 10.9263 | Growth (Fig. S2D) ([1]; Hygromycin.19uM): 10.9545 | Growth (Fig. S2D) ([1]; Hygromycin.95uM): 10.9494 | Growth (Fig. S2D) ([1]; MMS.0.004.): 10.9625 | Growth (Fig. S2D) ([1]; MMS.0.02.): 10.8338 | Growth (Fig. S2D) ([1]; MMS.0.04.): 10.264 | Growth (Fig. S2D) ([1]; Menadione.100uM): 10.4792 | Growth (Fig. S2D) ([1]; Menadione.200uM): 10.398 | Growth (Fig. S2D) ([1]; Menadione.50uM): 10.8403 | Growth (Fig. S2D) ([1]; NaCl.0.25M): 10.7336 | Growth (Fig. S2D) ([1]; NaCl.1M): 10.1964 | Growth (Fig. S2D) ([1]; Nitroquinoline.10uM): 10.6457 | Growth (Fig. S2D) ([1]; Nitroquinoline.50uM): 10.6448 | Growth (Fig. S2D) ([1]; Nystatin.0.01uM): 10.9455 | Growth (Fig. S2D) ([1]; Nystatin.0.1uM): 11.0177 | Growth (Fig. S2D) ([1]; Raffinose.2.): 10.9059 | Growth (Fig. S2D) ([1]; Rapamycin.10nM): 9.962 | Growth (Fig. S2D) ([1]; Rapamycin.50nM): 9.216 | Growth (Fig. S2D) ([1]; SC.pH3): 10.4509 | Growth (Fig. S2D) ([1]; SC.pH6): 10.9947 | Growth (Fig. S2D) ([1]; SDS.0.01.): 10.9398 | Growth (Fig. S2D) ([1]; SDS.0.02.): 10.9447 | Growth (Fig. S2D) ([1]; SDS.0.05.): 10.807 | Growth (Fig. S2D) ([1]; Sorbitol.10mM): 10.9819 | Growth (Fig. S2D) ([1]; Sorbitol.1mM): 10.9741 | Growth (Fig. S2D) ([1]; Sorbitol.5mM): 10.8941

B2: YGR037C_2 (protein, UniProt P31787 1-87, looked up)
Acyl-CoA-binding protein: MVSQLFEEKAKAVNELPTKPSTDELLELYALYKQATVGDNDKEKPGIFNMKDRYKWEAWENLKGKSQEDAEKEYIALVDQLIAKYSS
Ratio (Deletedscore / WTscore) ([2]; bait LSB3): 1.675 | Ratio (Deletedscore / WTscore) ([2]; bait MYO3): 1.004 | Ratio (Deletedscore / WTscore) ([2]; bait MYO5): 0.9102

B3: YOR081C_2 (protein, UniProt Q12043 1-749, looked up)
Triacylglycerol lipase 5: MSNTLPVTEFLLSKYYELSNTPATDSSSLFKWLYHKTLSRKQLLISDLSSQKKHAISYDQWNDIASRLDDLTGLSEWKTIDESSLYNYKLLQDLTIRMRHLRTTHDYHRLLYLIRTKWVRNLGNMNNVNLYRHSHTGTKQIIHDYLEESQAVLTALIHQSNMNDHYLLGILQQTRRNIGRTALVLSGGSTFGLFHIGVLAALFESDLMPKVISGSSAGAIVASIFCVHTTQEIPSLLTNVLNMEFNIFNDDNSKSPNENLLIKISRFCQNGTWFNNQPLINTMLSFLGNLTFREAYNKTGKILNITVSPASIYEQPKLLNNLTAPNVLIWSAVCASCSLPGVFPSTPLFEKDPHTGKIKEWGATNLHLSNMKFMDGSVDNDMPISRLSEMFNVDHIIACQVNIHVFPLLKFSNTCVGGEIEKEITARFRNQVTKIFKFFSDETIHFLDILKELEFHPYLMTKLKHLFLQQYSGNVTILPDLSMVGQFHEVLKNPSQLFLLHQTTLGARATWPKISMIQNNCGQEFALDKAITFLKEKIIISSSIKNPLQFYQPRFSEQIKSLSIMDADLPGVDLEESSSNSLSIIKSPNKTAAPGRFPLQPLPSPSSTFNKRKMDMLSPSPSPSTSPQRSKSSFTQQGTRQKANSLSFAIGASSLRLKKSPLKVPSRPQFKKRSSYYNQNMSAEMRKNRKKSGTISSYDVQTNSEDFPIPAIENGSFDNTLFNPSRFPMDAMSAATNDNFMNNSDIFQN
Ratio (Deletedscore / WTscore) ([2]; bait LSB3): 1.383

B4: YFR004W_2 (protein, UniProt P43588 1-306, looked up)
Ubiquitin carboxyl-terminal …: MERLQRLMMNSKVGSADTGRDDTKETVYISSIALLKMLKHGRAGVPMEVMGLMLGEFVDDYTVNVVDVFAMPQSGTGVSVEAVDDVFQAKMMDMLKQTGRDQMVVGWYHSHPGFGCWLSSVDVNTQKSFEQLNSRAVAVVVDPIQSVKGKVVIDAFRLIDTGALINNLEPRQTTSNTGLLNKANIQALIHGLNRHYYSLNIDYHKTAKETKMLMNLHKEQWQSGLKMYDYEEKEESNLAATKSMVKIAEQYSKRIEEEKELTEEELKTRYVGRQDPKKHLSETADETLENNIVSVLTAGVNSVAIK
Ratio (Deletedscore / WTscore) ([2]; bait ABP1): 1.111 | Ratio (Deletedscore / WTscore) ([2]; bait LSB3): 1.521 | Ratio (Deletedscore / WTscore) ([2]; bait MYO3): 1.308 | Ratio (Deletedscore / WTscore) ([2]; bait MYO5): 1.194 | Ratio (Deletedscore / WTscore) ([2]; bait RVS167): 1.454

B5: YPL246C_2 (protein, UniProt Q12270 1-262, looked up)
Rhomboid-type serine protease …: MNWKSYVFPGGHPPAALTTGLVVFLTAIYLLSFIFALREDLSLAPESLFKLQMSRLSLYPLIHLSLPHLLFNVLAIWAPLNLFEETHGTVYTGVFLNLSALFAGILYCLLGKLLYPEALVAGASGWCFTLFAYYSFKESQIRPRTRIFRTDYSIPTLYTPLVLLVAIAVVIPGSSFWGHFFGLCVGYAIGYKESWFNKITPPGWIITKIEKSLDGLIRLIPWGIKYYRDEDIDRTKDYEPLMSTETPLPLHNDNSGTVLGTA
Ratio (Deletedscore / WTscore) ([2]; bait ABP1): 1.339 | Ratio (Deletedscore / WTscore) ([2]; bait LSB3): 1.364 | Ratio (Deletedscore / WTscore) ([2]; bait SHO1): 1.171

B6: YOR039W_2 (protein, UniProt P38930 1-258, looked up)
Casein kinase II subunit beta': MGSRSENVGTVTREGSRVEQDDVLMDDDSDSSEYVDMWIDLFLGRKGHEYFCDVDPEYITDRFNLMNLQKTVSKFSYVVQYIVDDLDDSILENMTHARLEQLESDSRKLYGLIHARYIITIKGLQKMYAKYKEADFGRCPRVYCNLQQLLPVGLHDIPGIDCVKLYCPSCEDLYIPKSSRHSSIDGAYFGTSFPGMFLQAFPDMVPKHPTKRYVPKIFGFELHKQAQLTRWQELQRLKLVEKLESKDVDLTKSGGFKT
Ratio (Deletedscore / WTscore) ([2]; bait LSB3): 1.116
